In patent US20200040057A1 (IMMATICS BIOTECHNOLOGIES, published 2020):

Target: HLA-B*07 (human)
Experiment: UV peptide exchange ELISA; +++ = yield >50

| Binder | peptide exchange yield [%] |
| --- | --- |
| APADEPRTVL | 50 to 75 |
| SPSKSLEM | 50 to 75 |
| FPYSGDKILV | 50 to 75 |
| LIAARGSLVL | 50 to 75 |
| KPIRTGISPLAL | 50 to 75 |
| SPSLQSSRESL | 50 to 75 |
| IPETASVVAI | 50 to 75 |
| QPQQPGFFL | 50 to 75 |
| LPMTHRLQL | 50 to 75 |
| LPYEKVSRL | 50 to 75 |
| RPTAASQSRAL | 50 to 75 |
| RVLLRWISL | 50 to 75 |
| HPNKIKASL | 50 to 75 |
| RNRQVATAL | 50 to 75 |
| APEPRAALL | 50 to 75 |
| WPRLPGAGL | 50 to 75 |
| AASPVGSAL | 50 to 75 |
| LPWEQNEQV | 50 to 75 |
| SPVGVGQRL | 50 to 75 |
| RPGTGQGGL | 50 to 75 |
| VPHTGRYTCL | 50 to 75 |
| QPENSLEGISL | 50 to 75 |
| RPFPLALL | 50 to 75 |
| TAYPSLRLL | 50 to 75 |
| YPLQGPGLLSV | 50 to 75 |

| Binder | peptide exchange yield [%] |
| --- | --- |
| HPYSDLADVF | 50 to 75 |
| VLPRAGGAFLM | 50 to 75 |
| VPSDITTAF | 50 to 75 |
| SVLPRALSL | 50 to 75 |
| VPPQNPRPSL | 50 to 75 |
| NPIFGRKEL | 50 to 75 |
| SPRGTTSTL | 50 to 75 |
| FPNAGPRHLL | 50 to 75 |
| QPANFIVLL | 50 to 75 |
| APRPGNWIL | 50 to 75 |
| MAYDRFIAI | 50 to 75 |
| RPSGTAGAAL | 50 to 75 |
| LPLHRGDLVI | 50 to 75 |
| RPRPPKVL | 50 to 75 |
| SPSTSRTPL | 50 to 75 |
| HPRAPGEQQRL | 50 to 75 |
| LPSPAHAFRAL | 50 to 75 |
| LPNTGRIGQL | 50 to 75 |
| GPQRTTSV | 50 to 75 |
| MPVPGILL | 50 to 75 |
| NPREPEKSL | 50 to 75 |
| MPATPSLKV | 50 to 75 |
| TPRIGPKVSL | 50 to 75 |
| FPAFLEAM | 50 to 75 |
| RITWKGLLL | 50 to 75 |

| Binder | peptide exchange yield [%] |
| --- | --- |
| IPDTIASVL | 50 to 75 |
| TPELKSSIL | 50 to 75 |
| RVMLPKAAL | 50 to 75 |
| SSPRGTTSTL | 50 to 75 |
| SPGDKRLAAYL | 50 to 75 |
| LHAMNSLSAM | 50 to 75 |
| SPIIHSIL | 50 to 75 |
| RPHQKGWLSI | 50 to 75 |
| SPTPVFTTL | 50 to 75 |
| AVHEIGHSL | 50 to 75 |
| LPQRPNARL | 50 to 75 |
| RPAPGPAPFV | 50 to 75 |
| RAVPVGSGL | 50 to 75 |
| MPKTNLSKM | 50 to 75 |
| KPYDGIPAS | 50 to 75 |
| APGGSSRSSL | 50 to 75 |
| FPRKPYEGRV | 50 to 75 |
| SPDSAILKL | 50 to 75 |
| KIEQIRAVL | 50 to 75 |
| IPAPQGAVL | 50 to 75 |
| SPSREASAL | 50 to 75 |
| FAFYGGKSL | 50 to 75 |
| RLAHVRARL | 50 to 75 |
| SPRSGVLL | 50 to 75 |
| IPIDQILNSF | 50 to 75 |
